Experimental data reported in the supplement of paper PMC10065799, “High-throughput profiling of sequence recognition by tyrosine kinases and SH2 domains using bacterial peptide display” (eLife, 2023).

How the values were obtained:
c-Src SH2 = test: SH2 binding enrichment of the phosphorylated peptide, bacterial display (enrichment ratio); higher = better substrate or ligand; peptides without Tyr show the background
SHP2-C SH2 = test: as above
Grb2 SH2 = Grb2 SH2 (UniProt P62993); test: as above
Chain of Grb2 SH2 (P62993 whole entry, looked up): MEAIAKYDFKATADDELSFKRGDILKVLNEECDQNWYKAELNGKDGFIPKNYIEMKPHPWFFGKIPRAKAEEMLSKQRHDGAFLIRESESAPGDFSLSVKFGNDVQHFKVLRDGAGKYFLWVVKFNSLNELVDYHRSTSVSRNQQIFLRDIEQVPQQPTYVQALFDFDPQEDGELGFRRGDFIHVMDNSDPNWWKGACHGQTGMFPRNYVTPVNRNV

FGFR1 = FGFR1 (UniProt P11362); test: phosphorylation enrichment, bacterial display (enrichment ratio); higher = better substrate or ligand; peptides without Tyr show the background
Jak2 = Jak2 (UniProt O60674); test: as above
Chain of Jak2 (O60674 whole entry, looked up): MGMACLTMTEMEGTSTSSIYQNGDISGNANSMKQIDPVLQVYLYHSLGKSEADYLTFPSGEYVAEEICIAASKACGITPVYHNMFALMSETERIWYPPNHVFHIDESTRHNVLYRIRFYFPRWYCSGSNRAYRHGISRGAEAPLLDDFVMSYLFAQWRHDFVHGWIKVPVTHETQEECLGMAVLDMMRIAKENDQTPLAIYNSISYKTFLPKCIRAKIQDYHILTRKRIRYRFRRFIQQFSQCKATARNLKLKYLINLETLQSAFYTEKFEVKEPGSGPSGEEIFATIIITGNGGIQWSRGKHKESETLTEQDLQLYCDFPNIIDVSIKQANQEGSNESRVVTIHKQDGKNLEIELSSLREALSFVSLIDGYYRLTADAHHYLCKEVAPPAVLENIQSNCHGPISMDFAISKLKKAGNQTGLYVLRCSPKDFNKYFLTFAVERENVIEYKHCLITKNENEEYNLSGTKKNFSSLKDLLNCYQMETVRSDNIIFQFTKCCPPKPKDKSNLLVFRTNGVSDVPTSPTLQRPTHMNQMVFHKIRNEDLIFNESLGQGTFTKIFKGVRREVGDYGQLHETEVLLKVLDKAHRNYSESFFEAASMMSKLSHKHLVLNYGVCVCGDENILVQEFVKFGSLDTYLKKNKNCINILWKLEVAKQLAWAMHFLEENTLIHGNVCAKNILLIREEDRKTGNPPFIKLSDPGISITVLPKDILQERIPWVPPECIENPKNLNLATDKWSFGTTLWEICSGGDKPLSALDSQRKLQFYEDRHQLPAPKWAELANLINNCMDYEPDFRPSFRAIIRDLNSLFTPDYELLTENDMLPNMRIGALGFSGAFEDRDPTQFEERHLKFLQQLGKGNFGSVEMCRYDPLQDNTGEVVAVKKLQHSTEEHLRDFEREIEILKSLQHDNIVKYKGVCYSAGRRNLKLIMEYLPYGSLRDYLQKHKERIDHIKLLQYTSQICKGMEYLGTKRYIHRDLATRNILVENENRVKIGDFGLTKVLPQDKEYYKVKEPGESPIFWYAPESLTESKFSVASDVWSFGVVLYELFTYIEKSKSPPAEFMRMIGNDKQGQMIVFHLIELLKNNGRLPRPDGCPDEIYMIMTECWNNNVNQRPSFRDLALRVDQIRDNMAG

EPHB2 = EPHB2 (UniProt P29323); test: as above
Chain of EPHB2 (P29323 whole entry, looked up): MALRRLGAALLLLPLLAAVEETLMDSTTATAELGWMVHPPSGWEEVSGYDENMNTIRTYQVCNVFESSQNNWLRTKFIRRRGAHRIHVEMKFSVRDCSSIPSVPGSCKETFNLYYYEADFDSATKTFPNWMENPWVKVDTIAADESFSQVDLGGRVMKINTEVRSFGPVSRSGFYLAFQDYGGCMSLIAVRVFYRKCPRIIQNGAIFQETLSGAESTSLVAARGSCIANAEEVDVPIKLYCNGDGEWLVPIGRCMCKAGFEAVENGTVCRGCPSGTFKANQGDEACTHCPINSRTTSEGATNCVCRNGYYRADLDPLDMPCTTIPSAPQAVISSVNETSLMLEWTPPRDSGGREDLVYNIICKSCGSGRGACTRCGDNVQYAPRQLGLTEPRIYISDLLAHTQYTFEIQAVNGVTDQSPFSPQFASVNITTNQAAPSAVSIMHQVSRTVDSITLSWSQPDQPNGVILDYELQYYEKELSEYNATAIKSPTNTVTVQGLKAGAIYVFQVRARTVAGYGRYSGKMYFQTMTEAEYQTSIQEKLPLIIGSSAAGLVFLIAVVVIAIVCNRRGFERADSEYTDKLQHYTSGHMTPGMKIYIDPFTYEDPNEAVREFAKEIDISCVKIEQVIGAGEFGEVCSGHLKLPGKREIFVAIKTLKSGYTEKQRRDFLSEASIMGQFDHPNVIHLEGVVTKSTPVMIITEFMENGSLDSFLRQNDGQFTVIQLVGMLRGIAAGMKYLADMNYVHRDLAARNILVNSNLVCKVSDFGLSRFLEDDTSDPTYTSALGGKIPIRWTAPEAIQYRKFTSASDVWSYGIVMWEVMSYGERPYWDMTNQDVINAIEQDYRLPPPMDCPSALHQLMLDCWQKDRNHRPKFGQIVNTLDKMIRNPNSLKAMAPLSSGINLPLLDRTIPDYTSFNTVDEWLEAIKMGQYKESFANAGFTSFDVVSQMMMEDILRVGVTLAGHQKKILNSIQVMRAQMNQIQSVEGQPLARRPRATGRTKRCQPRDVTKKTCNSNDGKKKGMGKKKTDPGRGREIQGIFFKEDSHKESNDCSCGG

c-Abl (mouse) = test: as above
MERTK = MERTK (UniProt Q12866); test: as above
Chain of MERTK (Q12866 whole entry, looked up): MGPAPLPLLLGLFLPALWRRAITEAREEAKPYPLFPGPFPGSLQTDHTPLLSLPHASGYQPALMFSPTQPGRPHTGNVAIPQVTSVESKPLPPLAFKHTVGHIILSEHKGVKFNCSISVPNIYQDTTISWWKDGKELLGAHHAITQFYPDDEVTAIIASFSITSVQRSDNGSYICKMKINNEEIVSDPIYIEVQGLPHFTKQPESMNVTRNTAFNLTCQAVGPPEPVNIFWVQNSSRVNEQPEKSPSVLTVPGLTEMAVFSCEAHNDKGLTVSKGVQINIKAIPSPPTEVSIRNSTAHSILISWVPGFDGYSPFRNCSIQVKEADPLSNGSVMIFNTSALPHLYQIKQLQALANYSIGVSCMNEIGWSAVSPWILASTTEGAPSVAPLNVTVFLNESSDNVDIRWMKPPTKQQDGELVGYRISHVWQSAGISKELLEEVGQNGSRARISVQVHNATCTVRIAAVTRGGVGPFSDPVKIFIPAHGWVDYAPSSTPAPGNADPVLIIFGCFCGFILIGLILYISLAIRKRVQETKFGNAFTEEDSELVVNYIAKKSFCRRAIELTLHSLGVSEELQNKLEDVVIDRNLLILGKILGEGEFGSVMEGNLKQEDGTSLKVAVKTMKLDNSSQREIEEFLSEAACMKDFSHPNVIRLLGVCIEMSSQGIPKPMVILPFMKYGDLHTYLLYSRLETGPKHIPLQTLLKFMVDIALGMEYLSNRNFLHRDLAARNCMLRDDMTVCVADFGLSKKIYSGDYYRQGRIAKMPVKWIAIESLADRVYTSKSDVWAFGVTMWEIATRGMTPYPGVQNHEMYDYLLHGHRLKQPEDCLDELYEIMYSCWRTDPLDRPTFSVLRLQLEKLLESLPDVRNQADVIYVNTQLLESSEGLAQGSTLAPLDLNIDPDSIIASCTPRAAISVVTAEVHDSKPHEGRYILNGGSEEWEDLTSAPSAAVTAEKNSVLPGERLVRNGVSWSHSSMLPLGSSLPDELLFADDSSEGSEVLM

FGFR3 = FGFR3 (UniProt P22607); test: as above
Chain of FGFR3 (P22607 whole entry, looked up): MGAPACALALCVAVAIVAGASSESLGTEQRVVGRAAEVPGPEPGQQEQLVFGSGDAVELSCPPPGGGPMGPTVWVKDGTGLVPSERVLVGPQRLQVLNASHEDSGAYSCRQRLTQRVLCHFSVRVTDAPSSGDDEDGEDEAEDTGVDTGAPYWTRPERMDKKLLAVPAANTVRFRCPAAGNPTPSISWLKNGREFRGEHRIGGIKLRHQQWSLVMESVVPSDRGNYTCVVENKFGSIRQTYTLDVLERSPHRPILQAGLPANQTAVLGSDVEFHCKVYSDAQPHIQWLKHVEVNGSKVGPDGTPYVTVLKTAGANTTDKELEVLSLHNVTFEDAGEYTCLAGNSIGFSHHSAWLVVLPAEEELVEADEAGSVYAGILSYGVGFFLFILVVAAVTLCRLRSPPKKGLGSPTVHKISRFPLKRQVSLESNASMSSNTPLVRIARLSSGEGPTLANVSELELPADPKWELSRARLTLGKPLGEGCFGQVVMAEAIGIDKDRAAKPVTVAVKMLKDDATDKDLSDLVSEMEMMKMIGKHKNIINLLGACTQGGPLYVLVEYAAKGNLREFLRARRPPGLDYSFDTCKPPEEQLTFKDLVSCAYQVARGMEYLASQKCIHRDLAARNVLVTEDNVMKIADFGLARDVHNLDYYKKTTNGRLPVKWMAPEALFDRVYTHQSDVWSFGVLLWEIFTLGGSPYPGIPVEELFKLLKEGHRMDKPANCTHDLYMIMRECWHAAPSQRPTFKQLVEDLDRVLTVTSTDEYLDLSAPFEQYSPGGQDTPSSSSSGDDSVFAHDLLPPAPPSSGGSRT

AncSZ = test: as above
Hck = Hck (UniProt P08631); test: as above
Fes = Fes (UniProt P07332); test: as above
Chain of Fes (P07332 whole entry, looked up): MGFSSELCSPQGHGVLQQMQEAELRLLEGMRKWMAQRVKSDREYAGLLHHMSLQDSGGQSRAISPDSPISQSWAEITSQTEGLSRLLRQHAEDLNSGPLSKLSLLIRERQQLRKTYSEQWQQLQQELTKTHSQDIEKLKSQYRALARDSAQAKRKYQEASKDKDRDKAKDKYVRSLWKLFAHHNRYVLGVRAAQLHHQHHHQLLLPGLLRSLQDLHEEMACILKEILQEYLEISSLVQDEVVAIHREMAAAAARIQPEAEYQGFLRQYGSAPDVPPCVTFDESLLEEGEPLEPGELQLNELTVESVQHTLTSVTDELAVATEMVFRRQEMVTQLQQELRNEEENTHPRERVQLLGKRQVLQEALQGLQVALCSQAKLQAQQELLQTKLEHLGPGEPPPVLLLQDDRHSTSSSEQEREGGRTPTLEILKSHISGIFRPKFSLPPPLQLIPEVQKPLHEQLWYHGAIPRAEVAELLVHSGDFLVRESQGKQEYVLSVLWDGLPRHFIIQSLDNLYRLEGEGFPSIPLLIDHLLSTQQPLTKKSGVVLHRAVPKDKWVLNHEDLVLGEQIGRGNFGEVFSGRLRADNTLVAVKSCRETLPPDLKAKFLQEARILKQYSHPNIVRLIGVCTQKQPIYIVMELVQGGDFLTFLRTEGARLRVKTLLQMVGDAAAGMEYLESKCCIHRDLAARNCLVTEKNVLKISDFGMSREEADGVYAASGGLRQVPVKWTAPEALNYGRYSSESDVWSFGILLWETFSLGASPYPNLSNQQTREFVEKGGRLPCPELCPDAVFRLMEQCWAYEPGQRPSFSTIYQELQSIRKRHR

EPHB1 = EPHB1 (UniProt P54762); test: as above
Fyn = Fyn (UniProt P06241); test: as above
c-Src = test: as above
Fer (mouse) = test: as above
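Throughout, for SH2 binding enrichment of the phosphorylated peptide, bacterial display: peptide library displayed on the E. coli surface as eCPX fusions, selected cells deep-sequenced, score is each peptide's frequency after selection divided by its frequency in the input.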
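Throughout, for phosphorylation enrichment, bacterial display: 11-residue human phosphosite peptides and single-mutation variants displayed on the E. coli surface, counted by deep sequencing, each peptide's frequency after selection divided by its frequency in the unselected input library; frequency after pTyr selection over input frequency; kinase dosed for 20-30% of maximal phosphorylation in three min.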

Sequence | SH2 binding enrichment (c-Src SH2) | SH2 binding enrichment (SHP2-C SH2) | SH2 binding enrichment (Grb2 SH2) | phosphorylation enrichment (FGFR1) | phosphorylation enrichment (Jak2) | phosphorylation enrichment (EPHB2) | phosphorylation enrichment (c-Abl (mouse)) | phosphorylation enrichment (MERTK) | phosphorylation enrichment (FGFR3) | phosphorylation enrichment (AncSZ) | phosphorylation enrichment (Hck) | phosphorylation enrichment (Fes) | phosphorylation enrichment (EPHB1) | phosphorylation enrichment (Fyn) | phosphorylation enrichment (c-Src) | phosphorylation enrichment (Fer (mouse))
AARVSYRLASG [DCHS1_Y1582] | 0.409 | 0.759 | 0.842 | 0.354 | 0.428 | 0.49 | 0.423 | 0.422 | 0.392 | 0.554 | 0.378 | 0.588 | 0.352 | 0.315 | 0.382 | 0.51
ADARMYGVLPR [PLP1_Y207_W212R] | 0.557 | 0.629 | 0.661 | 0.467 | 0.398 | 0.477 | 0.481 | 0.405 | 0.44 | 0.598 | 3.23 | 0.467 | 0.378 | 0.536 | 0.727 | 0.385
ADDSYYTARSA [ZAP70_Y493] | 0.401 | 0.448 | 0.861 | 0.773 | 0.597 | 0.603 | 0.542 | 0.634 | 0.754 | 0.932 | 1.12 | 0.706 | 0.484 | 0.623 | 0.7 | 0.518
ADEEFYEIIAA [FEStide_F_2014] | 0.729 | 0.605 | 0.917 | 1.5 | 1.09 | 0.77 | 0.853 | 2.19 | 1.4 | 2.54 | 3.26 | 1.57 | 0.886 | 2.42 | 3.36 | 7.22
ADGLEYSRTEL [MMUT_Y287_G291E] | 0.447 | 0.596 | 0.717 | 0.552 | 0.747 | 0.572 | 0.621 | 0.437 | 0.637 | 1.03 | 0.547 | 0.873 | 0.483 | 0.527 | 0.461 | 0.56
ADGLEYSRTGL [MMUT_Y287] | 0.373 | 0.606 | 0.758 | 0.602 | 0.855 | 1.6 | 0.878 | 0.592 | 0.559 | 0.99 | 0.776 | 0.978 | 0.555 | 0.544 | 0.641 | 0.514
ADMETYLLEKS [MYH7_Y266_I263M] | 0.523 | 0.564 | 0.67 | 0.573 | 0.983 | 0.581 | 0.864 | 0.447 | 0.582 | 0.949 | 0.549 | 1.11 | 0.612 | 0.573 | 0.869 | 0.454
ADRNHYRRFRR [YBX1_Y145_P149R_YF] | 0.428 | 0.659 | 0.669 | 0.509 | 0.579 | 0.447 | 0.507 | 0.672 | 0.721 | 0.564 | 0.544 | 0.561 | 0.462 | 0.57 | 0.548 | 0.435
AEEKEYHAEEG [EGFR_Y869_G873E] | 0.552 | 0.746 | 0.994 | 0.605 | 1.01 | 0.815 | 0.84 | 0.445 | 0.747 | 1.29 | 0.573 | 1.15 | 0.649 | 0.633 | 0.451 | 0.494
AEQEEYSAMRD [NRAS_Y64_G60E] | 0.456 | 0.785 | 1.01 | 0.525 | 1.14 | 0.566 | 0.802 | 0.478 | 0.737 | 1.4 | 0.571 | 1.26 | 0.541 | 0.458 | 0.536 | 0.469
AGADGYDFLAP [FOXL2_Y186_G187D_YF] | 5.67 | 0.661 | 0.883 | 0.543 | 1.03 | 0.645 | 0.785 | 0.708 | 0.744 | 0.984 | 0.79 | 1.17 | 0.554 | 0.452 | 0.555 | 0.598
AHPIIYDIIEA [PYKtide_D_2014] | 1.25 | 0.483 | 0.819 | 0.699 | 0.949 | 10.7 | 5.89 | 9.44 | 0.794 | 1.41 | 8.25 | 2.13 | 12.7 | 7.74 | 6.44 | 11.9
AKAEICEMRPL [COX10_Y97_Y97C] | 0.679 | 0.798 | 1.01 | 0.593 | 0.716 | 0.516 | 0.738 | 0.437 | 0.477 | 0.709 | 0.608 | 0.921 | 0.469 | 0.389 | 0.533 | 0.602
AKAFIYASHIV [ZNF573_Y229_G224A] | 0.637 | 0.724 | 0.82 | 0.561 | 0.908 | 0.771 | 1.44 | 0.501 | 0.965 | 0.962 | 0.842 | 1.08 | 0.7 | 1 | 1.53 | 1.57
